Data: the supplement of paper PMC5998384

How the values were obtained:
HeLa Kyoto [1] = test: solubility in G1/S (NP-40 vs SDS abundance) (log2 ratio); higher = more soluble; conditions: cell cycle stage: G1/S
HeLa Kyoto [2] = test: melting temperature (median over replicates), in situ; higher = more thermally stable
HeLa Kyoto [3] = test: thermal stability score vs G1/S (z-score of summed log2 fold changes over temperatures); higher = more thermally stable than in G1/S
HeLa Kyoto [4] = test: solubility change mitosis vs G1/S (difference of NP-40 vs SDS log2 ratios) (log2 ratio difference); higher = more soluble in mitosis
[5] = cell cycle stage: early G1 (4.5 h after nocodazole release)
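Throughout, for melting temperature (median over replicates), in situ: HeLa Kyoto cells synchronized by double thymidine or nocodazole block, proteins quantified by TMT10plex mass spectrometry, three independent biological replicates.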
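Throughout, for solubility change mitosis vs G1/S (difference of NP-40 vs SDS log2 ratios): synchronized HeLa Kyoto cells (double thymidine block for G1/S, nocodazole release for mitosis), protein amounts in NP-40 versus SDS lysates quantified by mass spectrometry, three biological replicates.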
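Throughout, for solubility in G1/S (NP-40 vs SDS abundance): HeLa Kyoto cells arrested at G1/S by double thymidine block, proteins quantified by TMT10plex mass spectrometry in mild NP-40 versus SDS extracts, three biological replicates.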
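Throughout, for thermal stability score vs G1/S (z-score of summed log2 fold changes over temperatures): synchronized HeLa Kyoto cells, proteins quantified by TMT10plex mass spectrometry, three biological replicates, mitosis taken 0.5 h after nocodazole release, G1/S directly after double thymidine block.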

Sequence	solubility in G1/S (log2) (HeLa Kyoto [1])	melting temperature (HeLa Kyoto [2]; cell cycle stage: mitosis)	thermal stability score (HeLa Kyoto [3]; [5])	thermal stability score (HeLa Kyoto [3]; cell cycle stage: mitosis)	solubility change mitosis (log2) (HeLa Kyoto [4])	melting temperature (HeLa Kyoto [2]; cell cycle stage: G1/S)
MAASALYACTKCTQRYPFEELSQGQQLCKECRIAHPIVKCTYCRSEFQQESKTNTICKKCAQNVKQFGTPKPCQYCNIIAAFIGTKCQRCTNSEKKYGPPQTCEQCKQQCAFDRKEEGRRKVDGKLLCWLCTLSYKRVLQKTKEQRKSLGSSHSNSSSSSLTEKDQHHPKHHHHHHHHHHRHSSSHHKISNLSPEEEQGLWKQSHKSSATIQNETPKKKPKLESKPSNGDSSSINQSADSGGTDNFVLISQLKEEVMSLKRLLQQRDQTILEKDKKLTELKADFQYQESNLRTKMNSMEKAHKETVEQLQAKNRELLKQVAALSKGKKFDKSGSILTSP [FAM76B]	-0.529	51.3 °C	-0.509	0.107	0.486	
MAASGEPQRQWQEEVAAVVVVGSCMTDLVSLTSRLPKTGETIHGHKFFIGFGGKGANQCVQAARLGAMTSMVCKVGKDSFGNDYIENLKQNDISTEFTYQTKDAATGTASIIVNNEGQNIIVIVAGANLLLNTEDLRAAANVISRAKVMVCQLEITPATSLEALTMARRSGVKTLFNPAPAIADLDPQFYTLSDVFCCNESEAEILTGLTVGSAADAGEAALVLLKRGCQVVIITLGAEGCVVLSQTEPEPKHIPTEKVKAVDTTGAGDSFVGALAFYLAYYPNLSLEDMLNRSNFIAAVSVQAAGTQSSYPYKKDLPLTLF [RBKS]	0.229	54.8 °C	-2.59	-2.4	-0.0848	57.9 °C
MAASGKLSTCRLPPLPTIREIIKLLRLQAAKQLSQNFLLDLRLTDKIVRKAGNLTNAYVYEVGPGPGGITRSILNADVAELLVVEKDTRFIPGLQMLSDAAPGKLRIVHGDVLTFKVEKAFSESLKRPWEDDPPNVHIIGNLPFSVSTPLIIKWLENISCRDGPFVYGRTQMTLTFQKEVAERLAANTGSKQRSRLSVMAQYLCNVRHIFTIPGQAFVPKPEVDVGVVHFTPLIQPKIEQPFKLVEKVVQNVFQFRRKYCHRGLRMLFPEAQRLESTGRLLELADIDPTLRPRQLSISHFKSLCDVYRKMCDEDPQLFAYNFREELKRRKSKNEEKEEDDAENYRL [TFB1M]	-0.318	51.4 °C	0.388	0.452	0.122	51.7 °C
MAASRPLSRFWEWGKNIVCVGRNYADHVREMRSAVLSEPVLFLKPSTAYAPEGSPILMPAYTRNLHHELELGVVMGKRCRAVPEAAAMDYVGGYALCLDMTARDVQDECKKKGLPWTLAKSFTASCPVSAFVPKEKIPDPHKLKLWLKVNGELRQEGETSSMIFSIPYIISYVSKIITLEEGDIILTGTPKGVGPVKENDEIEAGIHGLVSMTFKVEKPEY [FAHD1]	0.144	60 °C	-1.32	-1.65	-0.257	53.5 °C
MAASVEQREGTIQVQGQALFFREALPGSGQARFSVLLLHGIRFSSETWQNLGTLHRLAQAGYRAVAIDLPGLGHSKEAAAPAPIGELAPGSFLAAVVDALELGPPVVISPSLSGMYSLPFLTAPGSQLPGFVPVAPICTDKINAANYASVKTPALIVYGDQDPMGQTSFEHLKQLPNHRVLIMKGAGHPCYLDKPEEWHTGLLDFLQGLQ [ABHD14B]	0.421	52.7 °C	-0.635	-1.1	-0.165	52.9 °C
MAATAREDGASGQERGQRGCEHYDRGCLLKAPCCDKLYTCRLCHDNNEDHQLDRFKVKEVQCINCEKIQHAQQTCEECSTLFGEYYCDICHLFDKDKKQYHCENCGICRIGPKEDFFHCLKCNLCLAMNLQGRHKCIENVSRQNCPICLEDIHTSRVVAHVLPCGHLLHRTCYEEMLKEGYRCPLCMHSALDMTRYWRQLDDEVAQTPMPSEYQNMTVDILCNDCNGRSTVQFHILGMKCKICESYNTAQAGGRRISLDQQ [RCHY1]	0.146	52.3 °C	-0.0247	0.646	-0.374	51.2 °C
MAATASAGVPATVSEKQEFYQLLKNLINPSCMVRRQAEEIYENIPGLCKTTFLLDAVRNRRAGYEVRQMAAALLRRLLSSGFEEVYPNLPADVQRDVKIELILAVKLETHASMRKKLCDIFAVLARNLIDEDGTNHWPEGLKFLIDSIYSKNVVLWEVALHVFWHFPGIFGTQERHDLDIIKRLLDQCIQDQEHPAIRTLSARAAAAFVLANENNIALFKDFADLLPGILQAVNDSCYQDDDSVLESLVEIADTVPKYLGPYLEDTLQLSLKLCGDSRLSNLQRQLALEVIVTLSETATPMLKKHTNIIAQAVPHILAMMVDLQDDEDWVNADEMEEDDFDSNAVAAESALDRLACGLGGKVVLPMTKEHIMQMLQSPDWKYRHAGLMALSAIGEGCHQQMESILDETVNSVLLFLQDPHPRVRAAACTTLGQMATDFAPNFQKKFHETVIAALLRTMENQGNQRVQSHAASALIIFIEDCPKSLLVLYVDSMVKNLHSVLVIKLQELIRNGTKLALEQLVTTIASVADTIEEKFVPYYDIFMPSLKHIVELAVQKELKLLRGKTIECISHIGLAVGKEKFMQDASNVMQLLLKTQSDLNNMEDDDPQTSYMVSAWARMCKILGKDFQQYLPLVIEPLIKTASAKPDVALLDTQDVENMSDDDGWQFVNLGDQQSFGIKTSGLEAKATACQMLVYYAKELREGFVEYTEQVVKLMVPLLKFYFHDNVRVAAAESMPFLLECARIRGPEYLAQMWQFICDPLIKAIGTEPDTDVLSEIMNSFAKSIEVMGDGCLNDEHLEELGGILKAKLEGHFKNQELRQVKRQEENYDQQVEMSLQDEDECDVYILTKVSDILHSLFSTYKEKILPWFEQLLPLIVNLICSSRPWPDRQWGLCIFDDIIEHCSPTSFKYVEYFRWPMLLNMRDNNPEVRQAAAYGLGVMAQFGGDDYRSLCSEAVPLLVKVIKCANSKTKKNVIATENCISAIGKILKFKPNCVNVDEVLPHWLSWLPLHEDKEEAIQTLSFLCDLIESNHPVVIGPNNSNLPKIISIIAEGKINETINYEDPCAKRLANVVRQVQTSEDLWLECVSQLDDEQQEALQELLNFA [RANBP6]	-0.0197	51.5 °C	0.799	0.825	-0.132	49.9 °C
MAATLDLKSKEEKDAELDKRIEALRRKNEALIRRYQEIEEDRKKAELEGVAVTAPRKGRSVEKENVAVESEKNLGPSRRSPGTPRPPGASKGGRTPPQQGGRAGMGRASRSWEGSPGEQPRGGGAGGRGRRGRGRGSPHLSGAGDTSISDRKSKEWEERRRQNIEKMNEEMEKIAEYERNQREGVLEPNPVRNFLDDPRRRSGPLEESERDRREESRRHGRNWGGPDFERVRCGLEHERQGRRAGLGSAGDMTLSMTGRERSEYLRWKQEREKIDQERLQRHRKPTGQWRREWDAEKTDGMFKDGPVPAHEPSHRYDDQAWARPPKPPTFGEFLSQHKAEASSRRRRKSSRPQAKAAPRAYSDHDDRWETKEGAASPAPETPQPTSPETSPKETPMQPPEIPAPAHRPPEDEGEENEGEEDEEWEDISEDEEEEEIEVEEGDEEEPAQDHQAPEAAPTGIPCSEQAHGVPFSPEEPLLEPQAPGTPSSPFSPPSGHQPVSDWGEEVELNSPRTTHLAGALSPGEAWPFESV [CCDC9]	-0.239	56.3 °C	3.28	2.57	0.231	56.3 °C
MAATLLAARGAGPAPAWGPEAFTPDWESREVSTGTTIMAVQFDGGVVLGADSRTTTGSYIANRVTDKLTPIHDRIFCCRSGSAADTQAVADAVTYQLGFHSIELNEPPLVHTAASLFKEMCYRYREDLMAGIIIAGWDPQEGGQVYSVPMGGMMVRQSFAIGGSGSSYIYGYVDATYREGMTKEECLQFTANALALAMERDGSSGGVIRLAAIAESGVERQVLLGDQIPKFAVATLPPA [PSMB6]	0.119	59.6 °C	-1.97	-2.64	-0.103	59 °C
MAAVATCGSVAASTGSAVATASKSNVTSFQRRGPRASVTNDSGPRLVSIAGTRPSVRNGQLLVSTGLPALDQLLGGGLAVGTVLLIEEDKYNIYSPLLFKYFLAEGIVNGHTLLVASAKEDPANILQELPAPLLDDKCKKEFDEDVYNHKTPESNIKMKIAWRYQLLPKMEIGPVSSSRFGHYYDASKRMPQELIEASNWHGFFLPEKISSTLKVEPCSLTPGYTKLLQFIQNIIYEEGFDGSNPQKKQRNILRIGIQNLGSPLWGDDICCAENGGNSHSLTKFLYVLRGLLRTSLSACIITMPTHLIQNKAIIARVTTLSDVVVGLESFIGSERETNPLYKDYHGLIHIRQIPRLNNLICDESDVKDLAFKLKRKLFTIERLHLPPDLSDTVSRSSKMDLAESAKRLGPGCGMMAGGKKHLDF [ELP4]	0.226	55.4 °C	0.169	-0.665	-0.017	53.8 °C
MAAVKDSCGKGEMATGNGRRLHLGIPEAVFVEDVDSFMKQPGNETADTVLKKLDEQYQKYKFMELNLAQKKRRLKGQIPEIKQTLEILKYMQKKKESTNSMETRFLLADNLYCKASVPPTDKVCLWLGANVMLEYDIDEAQALLEKNLSTATKNLDSLEEDLDFLRDQFTTTEVNMARVYNWDVKRRNKDDSTKNKA [VBP1]	0.453	53.4 °C	-3.96	-5.3	0.513	53.1 °C
MAAVWQQVLAVDARYNAYRTPTFPQFRTQYIRRRSQLLRENAKAGHPPALRRQYLRLRGQLLGQRYGPLSEPGSARAYSNSIVRSSRTTLDRMEDFEDDPRALGARGHRRSVSRGSYQLQAQMNRAVYEDRPPGSVVPTSAAEASRAMAGDTSLSENYAFAGMYHVFDQHVDEAVPRVRFANDDRHRLACCSLDGSISLCQLVPAPPTVLRVLRGHTRGVSDFAWSLSNDILVSTSLDATMRIWASEDGRCIREIPDPDSAELLCCTFQPVNNNLTVVGNAKHNVHVMNISTGKKVKGGSSKLTGRVLALSFDAPGRLLWAGDDRGSVFSFLFDMATGKLTKAKRLVVHEGSPVTSISARSWVSREARDPSLLINACLNKLLLYRVVDNEGTLQLKRSFPIEQSSHPVRSIFCPLMSFRQGACVVTGSEDMCVHFFDVERAAKAAVNKLQGHSAPVLDVSFNCDESLLASSDASGMVIVWRREQK [WDR13]	0.0237	53 °C	0.118	0.204	-0.174	53.2 °C
MAAWKSWTALRLCATVVVLDMVVCKGFVEDLDESFKENRNDDIWLVDFYAPWCGHCKKLEPIWNEVGLEMKSIGSPVKVGKMDATSYSSIASEFGVRGYPTIKLLKGDLAYNYRGPRTKDDIIEFAHRVSGALIRPLPSQQMFEHMQKRHRVFFVYVGGESPLKEKYIDAASELIVYTYFFSASEEVVPEYVTLKEMPAVLVFKDETYFVYDEYEDGDLSSWINRERFQNYLAMDGFLLYELGDTGKLVALAVIDEKNTSVEHTRLKSIIQEVARDYRDLFHRDFQFGHMDGNDYINTLLMDELTVPTVVVLNTSNQQYFLLDRQIKNVEDMVQFINNILDGTVEAQGGDSILQRLKRIVFDAKSTIVSIFKSSPLMGCFLFGLPLGVISIMCYGIYTADTDGGYIEERYEVSKSENENQEQIEESKEQQEPSSGGSVVPTVQEPKDVLEKKKD [TMX3]	0.2	54.3 °C	0.827	3.44	-0.0543	54.5 °C
MAAYSYRPGPGAGPGPAAGAALPDQSFLWNVFQRVDKDRSGVISDTELQQALSNGTWTPFNPVTVRSIISMFDRENKAGVNFSEFTGVWKYITDWQNVFRTYDRDNSGMIDKNELKQALSGFGYRLSDQFHDILIRKFDRQGRGQIAFDDFIQGCIVLQRLTDIFRRYDTDQDGWIQVSYEQYLSMVFSIV [PDCD6]	0.15	50.5 °C	2.71	2.81	0.26	49.3 °C
